Where “and” joins values, the source holds several entries; their conditions need not be identical. Equal values may be shown once.
What was measured:
[1] = molecular target: Zot binding sites (surface receptor) on human monocytes/macrophages (CD14+) (human)
[2] = molecular target: Zot binding sites (surface receptor) on human monocytes/macrophages (CD14+) (human); assay: flow cytometry, MESF calibration, several volunteers
[3] = molecular target: Zot binding sites on human T lymphocytes (CD3+) (human); assay: as above
[4] = molecular target: Zot binding sites on human T lymphocytes (CD3+) (human); assay: real-time flow cytometry at 37°C, Zot-FITC 40 µg/ml, CD3 gate
[5] = molecular target: Zot binding sites (surface receptor) on human monocytes/macrophages (CD14+) (human); assay: real-time flow cytometry at 37°C, Zot-FITC 40 µg/ml, CD14 gate
[6] = molecular target: Zot binding sites (surface receptor) on human monocytes/macrophages (CD14+) (human); assay: flow cytometry, increasing concentrations of Zot-FITC on human PBMC
[7] = molecular target: Zot binding sites on human T lymphocytes (CD3+) (human); assay: as above
[8] = molecular target: Zot binding sites (surface receptor) on human monocytes/macrophages (CD14+) (human); assay: 4-color flow cytometry, 40 µg/ml Zot-FITC, 30 min at 37°C, CD14+ gate
[9] = molecular target: Zot binding sites (surface receptor) on human monocytes/macrophages (CD14+) (human); assay: flow cytometry, MFI converted with Quantum 26 MESF kit, saturation conditions
[10] = molecular target: Zot binding sites on human T lymphocytes (CD3+) (human); assay: as above
[11] = molecular target: Zot binding sites (surface receptor) on human monocytes/macrophages (CD14+) (human); assay: flow cytometry; […] (10 µl); […]
[12] = molecular target: Zot binding sites on human T lymphocytes (CD3+) (human); assay: flow cytometry; […] (10 µl); […]

With “6xHis-Zot fusion protein (purified Zot, unlabeled) (from UniProt P38442 1-399) (ligand)” as the substance, how does the percent suppression of Zot-FITC mean fluorescence intensity [1] read?
The percent suppression of Zot-FITC mean fluorescence intensity was 24% and 43%.

What does the source list for “Zot-FITC (6xHis-Zot fusion protein conjugated to fluorescein isothiocyanate, Examples 4-7) (from UniProt P38442 1-399) (ligand)”?
Zot binding sites/cell (mean of several volunteers) [2]: 105000 sites/cell; Zot binding sites/cell (mean of several volunteers) [3]: 10700 sites/cell; time to reach equilibrium [4]: < 2 min; time to reach equilibrium [5]: < 2 min; concentration at which saturation is reached [6]: 0.5 pM; concentration at which saturation is reached [7]: 0.5 pM; fold binding against T or B lymphocytes [8]: 5 fold and 8 fold; Zot-binding sites/cell [9]: 106000 sites/cell; Zot-binding sites/cell [10]: 9000 sites/cell

What does the source list for “purified Zot (cleaved from MBP-Zot with Factor Xa, Example 1) (from UniProt P38442 9-399) (ligand)”?
percent decrease of Zot-FITC binding [11]: 33%; percent decrease of Zot-FITC binding [12]: 33%
